One may read the Kd as the equilibrium constant for the complex coming apart. The term kon denotes a measure of how fast the partners come together. Higher therefore signals fast association.

The text below walks through data of patent publication US20170015742A1 (published 2017).

The chains are these.
B1: hBDB-4G8.15 (antibody, V domains shown)
VH: EVQLVESGGGLVQPGGSLRLSCAASGYTFTNYGMYWVKQAPGKGLEYMGWINTETGKPTYADDFKGRFTFSLDTSKSTAYLQMNSLRAEDTAVYFCARTNYYYRSYIFYFDYWGQGTLVTVSS
VL: DTQLTQSPSSLSASVGDRVTISCRASESVSTHMHWYQQKPGKAPKLLIYGASNLESGVPSRFSGSGSGTDFTLTISSLQPEDFATYFCQQSWNDPFTFGQGTKVEIK
notes: Humanized IgG made from pHybE vectors in HEK293 cells
B2: hBEW-9A8.11 (antibody, V domains shown)
VH: EVQLVQSGAEVKKPGASVKVSCKASGYTFTNYGMYWVRQAPGQGLEWMGWINTETGKPIYADDFKGRVTMTTDTSTSTAYMELRSLRSDDTAVYYCARVDYDGSFWFAYWGQGTLVTVSS
VL: DIQMTQSPSSLSASVGDRVTITCRASESVSTVIHWYQQKPGKAPKLLIYGASNLESGVPSRFSGSGSGTDFTLTISSLQPEDFATYYCQQHWNDPPTFGQGTKLEIK
notes: as for B1
B3: hBEW-9A8.12 (antibody, V domains shown)
VH: EVQLVQSGAEVKKPGASVKVSCKASGYTFTNYGMYWVRQAPGQGLEWMGWINTETGKPIYADDFKGRVTMTTDTSTSTAYMELRSLRSDDTAVYYCARVDYDGSFWFAYWGQGTLVTVSS
VL: DTQLTQSPSSLSASVGDRVTITCRASESVSTVIHWYQQKPGKQPKLLIHGASNLESGVPSRFSGSGSGTDFTLTISSLQPEDFATYFCQQHWNDPPTFGQGTKLEIK
notes: as for B1
B4: hBEW-5C3.5 (antibody, V domains shown)
VH: EIQLVQSGAEVKKPGSSVKVSCKASGYTFTNYGVYWVKQAPGQGLEYMGWINTETGKPTYADDFKGRFTFTLDKSTSTAYMELSSLRSEDTAVYFCARARQLDWFVYWGQGTLVTVSS
VL: DTQLTQSPSSLSASVGDRVTISCRARESLTTSLSWFQQKPGKQPKLLIYGASKLESGVPSRFSGSGSGTDFTLTISSLQPEDFATYFCQQSWYDPPTFGGGTKVEIK
notes: as for B1
B5: hBEW-9E10.1 (antibody, V domains shown)
VH: EIQLVQSGSELKKPGASVKVSCKASGYTFTNYGMYWVKQAPGQGLEYMGWIDTETGRPTYADDFKGRFVFSLDTSVSTAYLQISSLKAEDTAVYFCARWSGDTTGIRGPWFAYWGQGTLVTVSS
VL: DIRMTQSPSSLSASVGDRVTIECLASEDIYSDLAWYQQKPGKSPKLLIYNANGLQNGVPSRFSGSGSGTDYSLTISSLQPEDVATYFCQQYNYFPGTFGQGTKLEIK
notes: Humanized IgG made from pHybE vectors in HEK293 cells; also called AB642 (9E10.1)
B6: hBEW-9E10.2 (antibody, V domains shown)
VH: EIQLVQSGAEVKKPGSSVKVSCKASGYTFTNYGMYWVKQAPGQGLEYMGWIDTETGRPTYADDFKGRFTFTADKSTSTAYMELSSLRSEDTAVYFCARWSGDTTGIRGPWFAYWGQGTLVTVSS
VL: DIRMTQSPSSLSASVGDRVTIECLASEDIYSDLAWYQQKPGKSPKLLIYNANGLQNGVPSRFSGSGSGTDYSLTISSLQPEDVATYFCQQYNYFPGTFGQGTKLEIK
notes: as for B1
B7: hBEW-9E10.6 (antibody, V domains shown)
VH: EVQLVQSGAEVKKPGSSVKVSCKASGYTFTNYGMYWVRQAPGQGLEWMGWIDTETGRPTYADDFKGRFTFTADKSTSTAYMELSSLRSEDTAVYYCARWSGDTTGIRGPWFAYWGQGTLVTVSS
VL: DIRMTQSPSSLSASVGDRVTITCLASEDIYSDLAWYQQKPGKSPKLLIYNANGLQNGVPSRFSGSGSGTDYTLTISSLQPEDVATYFCQQYNYFPGTFGQGTKLEIK
notes: as for B1
B8: hBEW-9E10.3 (antibody, V domains shown)
VH: EVQLVQSGAEVKKPGSSVKVSCKASGYTFTNYGMYWVRQAPGQGLEWMGWIDTETGRPTYADDFKGRFTFTADKSTSTAYMELSSLRSEDTAVYYCARWSGDTTGIRGPWFAYWGQGTLVTVSS
VL: DIRMTQSPSSLSASVGDRVTIECLASEDIYSDLAWYQQKPGKSPKLLIYNANGLQNGVPSRFSGSGSGTDYSLTISSLQPEDVATYFCQQYNYFPGTFGQGTKLEIK
notes: as for B1
B9: hBEW-9E10.5 (antibody, V domains shown)
VH: EIQLVQSGAEVKKPGSSVKVSCKASGYTFTNYGMYWVKQAPGQGLEYMGWIDTETGRPTYADDFKGRFTFTADKSTSTAYMELSSLRSEDTAVYFCARWSGDTTGIRGPWFAYWGQGTLVTVSS
VL: DIRMTQSPSSLSASVGDRVTITCLASEDIYSDLAWYQQKPGKSPKLLIYNANGLQNGVPSRFSGSGSGTDYTLTISSLQPEDVATYFCQQYNYFPGTFGQGTKLEIK
notes: as for B1
B10: hBEW-9E10.4 (antibody, V domains shown)
VH: EIQLVQSGSELKKPGASVKVSCKASGYTFTNYGMYWVKQAPGQGLEYMGWIDTETGRPTYADDFKGRFVFSLDTSVSTAYLQISSLKAEDTAVYFCARWSGDTTGIRGPWFAYWGQGTLVTVSS
VL: DIRMTQSPSSLSASVGDRVTITCLASEDIYSDLAWYQQKPGKSPKLLIYNANGLQNGVPSRFSGSGSGTDYTLTISSLQPEDVATYFCQQYNYFPGTFGQGTKLEIK
notes: as for B1
B11: hBEW-1B10.1 (antibody, V domains shown)
VH: EVQLVESGGGLVQPGGSLRLSCAASGFSFSKYDMAWFRQAPGKGLEWVASITTSGVGTYYRDSVKGRFTVSRDNAKSTLYLQMNSLRAEDTAVYYCARGYGAMDAWGQGTTVTVSS
VL: DIQMTQSPSSLSASVGDRVTITCKASQDIDDYLSWYQQKPGKSPKLVIYAATRLADGVPSRFSGSGSGTDYTLTISSLQPEDFATYYCLQSSSTPWTFGGGTKVEIK
notes: as for B1
B12: hBEW-1B10.2 (antibody, V domains shown)
VH: EVQLVESGGGLVQPGGSLRLSCAASGFSFSKYDMAWFRQAPGKGLEWVASITTSGVGTYYRDSVKGRFTVSRDNAKNSLYLQMNSLRAEDTAVYYCARGYGAMDAWGQGTTVTVSS
VL: DIQMTQSPSSLSASVGDRVTITCKASQDIDDYLSWYQQKPGKSPKLVIYAATRLADGVPSRFSGSGSGTDYTLTISSLQPEDFATYYCLQSSSTPWTFGGGTKVEIK
notes: as for B1
B13: hBEW-9A8.9 (antibody, V domains shown)
VH: EVQLVQSGAEVKKPGASVKVSCKASGYTFTNYGMYWVRQAPGQGLEWMGWINTETGKPIYADDFKGRVTMTTDTSTSTAYMELRSLRSDDTAVYYCARVDYDGSFWFAYWGQGTLVTVSS
VL: EIVLTQSPDFQSVTPKEKVTITCRASESVSTVIHWYQQKPDQSPKLLIKGASNLESGVPSRFSGSGSGTDFTLTINSLEAEDAATYYCQQHWNDPPTFGQGTKLEIK
notes: as for B1
B14: hBEW-9A8.20 (antibody, V domains shown)
VH: EIQLVQSGAEVKKPGASVKVSCKASGYTFTNYGMYWVKQAPGQGLEYMGWINTETGKPIYADDFKGRFTFTLDTSTSTAYMELRSLRSDDTAVYYCARVDYDGSFWFAYWGQGTLVTVSS
VL: ETVLTQSPATLSLSPGERATLSCRASESVSTVIHWYQQKPGQQPRLLIHGASNLESGVPARFSGSGSGTDFTLTISSLEPEDFAVYFCQQHWNDPPTFGQGTKLEIK
notes: as for B1
B15: hBEW-9A8.17 (antibody, V domains shown)
VH: EIQLVQSGSELKKPGASVKVSCKASGYTFTNYGMYWVKQAPGQGLEYMGWINTETGKPIYADDFKGRFVFSLDTSVSTAYLQISSLKAEDTAVYYCARVDYDGSFWFAYWGQGTLVTVSS
VL: ETVLTQSPATLSLSPGERATLSCRASESVSTVIHWYQQKPGQQPRLLIHGASNLESGVPARFSGSGSGTDFTLTISSLEPEDFAVYFCQQHWNDPPTFGQGTKLEIK
notes: as for B1
B16: hBEW-9A8.21 (antibody, V domains shown)
VH: EIQLVQSGAEVKKPGASVKVSCKASGYTFTNYGMYWVRQAPGQGLEWMGWINTETGKPIYADDFKGRFTFTLDTSTSTAYMELRSLRSDDTAVYYCARVDYDGSFWFAYWGQGTLVTVSS
VL: ETVLTQSPATLSLSPGERATLSCRASESVSTVIHWYQQKPGQQPRLLIHGASNLESGVPARFSGSGSGTDFTLTISSLEPEDFAVYFCQQHWNDPPTFGQGTKLEIK
notes: as for B1
B17: hBEW-5C3.1 (antibody, V domains shown)
VH: EIQLVQSGSELKKPGASVKVSCKASGYTFTNYGVYWVKQAPGQGLEYMGWINTETGKPTYADDFKGRFVFSLDTSVSTAYLQISSLKAEDTAVYYCARARQLDWFVYWGQGTLVTVSS
VL: DTVLTQSPATLSLSPGERATLSCRARESLTTSLSWFQQKPGQQPRLLIYGASKLESGVPARFSGSGSGTDFTLTISSLEPEDFAVYFCQQSWYDPPTFGGGTKVEIK
notes: as for B1
B18: hBEW-5C3.4 (antibody, V domains shown)
VH: EIQLVQSGSELKKPGASVKVSCKASGYTFTNYGVYWVKQAPGQGLEYMGWINTETGKPTYADDFKGRFVFSLDTSVSTAYLQISSLKAEDTAVYYCARARQLDWFVYWGQGTLVTVSS
VL: DTQLTQSPSSLSASVGDRVTISCRARESLTTSLSWFQQKPGKQPKLLIYGASKLESGVPSRFSGSGSGTDFTLTISSLQPEDFATYFCQQSWYDPPTFGGGTKVEIK
notes: as for B1

T1 sequence (P15692 other isoform, or with tags, fused parts or gaps limits assumed): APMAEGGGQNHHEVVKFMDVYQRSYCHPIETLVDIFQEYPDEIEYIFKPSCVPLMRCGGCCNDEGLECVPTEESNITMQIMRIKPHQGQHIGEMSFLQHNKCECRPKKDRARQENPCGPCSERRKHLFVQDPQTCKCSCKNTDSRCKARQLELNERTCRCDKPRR

This test addresses T1, human VEGF-A (human, UniProt P15692-4 27-191, limits assumed).
T1 construct: also called huVEGF-A
Kind of test: SPR (Biacore), antibody captured by anti-human Fc, VEGF-A injected. As to the method:
For example, approximately 9000 RU of goat anti-human Fc specific polyclonal antibody (Thermo Fisher Scientific Inc., Rockford, Ill.) diluted in 10 mM sodium acetate (pH 4.5) is directly immobilized across a CM5 research grade biosensor chip using a standard amine coupling kit according to manufacturer's instructions and procedures at 25 μg/ml. Unreacted moieties on the biosensor surface were blocked with ethanolamine. For kinetic analysis, rate equations derived from the 1:1 Langmuir binding model were fitted simultaneously to multiple antigen injections (using global fit analysis) with the use of Scrubber 2 (BioLogic Software), Biacore Biaevaluation 4.0.1 software or Biacore T100 Evaluation software. Purified antibodies or DVD-Ig molecules were diluted in running buffer for capture across goat anti-human Fc reaction surfaces. Antibodies or DVD-Ig molecules to be captured as a ligand (1 μg/ml) were injected over reaction matrices at a flow rate of 10 μl/minute. During the assay, all measurements were referenced against the capture surface alone (i.e., with no captured antibody or DVD-Ig molecule). […] The equilibrium dissociation constant KD (M) of the reaction between antibodies and the target antigen was then calculated from the kinetic rate constants by the following formula: KD=Koff/Kₒₙ. Binding was recorded as a function of time and kinetic rate constants were calculated.
For B1, the Kd came out at 4.4 pM and the kon is 2e+07 M⁻¹ s⁻¹.

Take B2: the affinity, expressed as Kd, was 74 pM and the on-rate constant (kon) is 1.5e+07 M⁻¹ s⁻¹.

In turn, B3 had a Kd of 15 pM and an association rate constant (kon) of 9.6e+06 M⁻¹ s⁻¹.

Take B4: the Kd was 8.5 pM and the on-rate (kon) stood at 1.2e+07 M⁻¹ s⁻¹.

B5 registered a Kd of 2.1 pM and a kon of 1.2e+07 M⁻¹ s⁻¹.

With B6, the dissociation constant (Kd) was 12 pM and the kon came to 1.6e+07 M⁻¹ s⁻¹.

In turn, B7 displayed a dissociation constant (Kd) of 2.6 pM and a kon of 1.5e+07 M⁻¹ s⁻¹.

Molecule B8 registered a Kd of 3.2 pM and a kon of 1.3e+07 M⁻¹ s⁻¹.

For B9, the equilibrium dissociation constant (Kd) was 15 pM and the kon amounted to 1.6e+07 M⁻¹ s⁻¹.

B10 displayed a Kd of 2.1 pM and a kon of 1.2e+07 M⁻¹ s⁻¹.

B11 showed a Kd of 18 pM and a kon of 7.6e+06 M⁻¹ s⁻¹.

As to B12, binding was put at a Kd of 20 pM and the kon came out at 7.5e+06 M⁻¹ s⁻¹.

As to B13, the Kd was 820 pM and the on-rate constant (kon) came to 1e+07 M⁻¹ s⁻¹.

For B14, the affinity, expressed as Kd, was 1.6 pM and the kon is 7.6e+06 M⁻¹ s⁻¹.

In turn, B15 showed an equilibrium dissociation constant (Kd) of 1.7 pM and a kon of 7.9e+06 M⁻¹ s⁻¹.

Turning to B16, the Kd came to 6.7 pM and the on-rate constant (kon) is 5.8e+06 M⁻¹ s⁻¹.

B17 had a Kd of 6 pM and an on-rate (kon) of 1.1e+07 M⁻¹ s⁻¹.

In turn, B18 yielded an equilibrium dissociation constant (Kd) of 8.6 pM and a kon of 9.9e+06 M⁻¹ s⁻¹.
